{"source": "paper doi:10.1101/2023.08.17.553727", "target": "B’β-GFP (Arabidopsis thaliana) (UniProt O04376)", "sequence (O04376 whole entry)": "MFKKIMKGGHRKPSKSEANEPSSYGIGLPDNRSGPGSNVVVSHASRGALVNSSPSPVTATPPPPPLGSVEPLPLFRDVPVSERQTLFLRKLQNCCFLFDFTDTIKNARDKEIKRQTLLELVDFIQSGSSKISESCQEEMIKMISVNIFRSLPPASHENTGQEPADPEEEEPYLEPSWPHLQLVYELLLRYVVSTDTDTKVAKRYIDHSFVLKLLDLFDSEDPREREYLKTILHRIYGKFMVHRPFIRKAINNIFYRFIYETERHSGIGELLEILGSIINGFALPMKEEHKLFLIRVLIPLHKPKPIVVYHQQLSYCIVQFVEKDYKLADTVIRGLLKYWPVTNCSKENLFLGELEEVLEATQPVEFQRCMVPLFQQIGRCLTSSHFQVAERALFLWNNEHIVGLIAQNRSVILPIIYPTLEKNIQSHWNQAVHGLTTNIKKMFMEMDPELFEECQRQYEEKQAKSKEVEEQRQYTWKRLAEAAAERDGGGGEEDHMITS", "assay": "co-IP"}
{"substance": "PP2A C subunit (from UniProt Q07099 1-306) (enzyme)", "values": [{"measurement": "binding ability to the C subunit relative to YFP-B’β (fold of YFP-B’β)", "value": 0.33}]}
